# Results published in US20210301277.
# T1: human TF (Innovin, DADE/Behring), P13726
# T1 chain: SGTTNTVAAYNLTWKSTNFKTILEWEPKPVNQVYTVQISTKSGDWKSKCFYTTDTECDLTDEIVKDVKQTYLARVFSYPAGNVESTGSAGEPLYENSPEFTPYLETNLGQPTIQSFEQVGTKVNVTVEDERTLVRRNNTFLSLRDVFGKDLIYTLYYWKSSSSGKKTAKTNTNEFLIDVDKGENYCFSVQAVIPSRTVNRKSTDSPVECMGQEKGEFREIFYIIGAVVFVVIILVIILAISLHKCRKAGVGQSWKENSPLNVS
# Molecular target: T1, human TF (Innovin, DADE/Behring), P13726
Protein,"FX activation in the presence of 1 nM TF (FXa generation rates, mOD/min)","TF-dependent activity (FX activation, cleavage of chromogenic FXa substrate at 405 nm)"
FIXgla-egf1FVIIa (protein) YNSGKLEEFVQGNLERECMEEKCSFEEAREVFENTERTTEFWKQYVDGDQCESNPCLNGGSCKDDINSYECWCPFGFEGKNCETHKDDQLICVNENGGCEQYCSDHTGTKRSCRCHEGYSLLADGVSCTPTVEYPCGKIPILEKRNASKPQGRIVGGKVCPKGECPWQVLLLVNGAQLCGGTLINTIWVVSAAHCFDKIKNWRNLIAVLGEHDLSEHDGDEQSRRVAQVIIPSTYVPGTTNHDIALLRLHQPVVLTDHVVPLCLPERTFSERTLAFVRFSLVSGWGQLLDRGATALELMVLNVPRLMTQDCLQQSRKVGDSPNITEYMFCAGYSDGSKDSCKGDSGGPHATHYRGTWYLTGIVSWGQGCATVGHFGVYTRVSQYIEWLQKLMRSEPRPGVLLRAPFP,"The lack of FX activation, even at 100-fold higher concentration than that of rFVIIa",–
PCgla-egf1FVIIa (protein) chain 1: ANSFLEELRHSSLERECIEEICDFEEAKEIFQNVDDTLAFWSKHVDGDQCLVLPLEHPCASLCCGHGTCIDGIGSFSCDCRSGWEGRFCQRKDDQLICVNENGGCEQYCSDHTGTKRSCRCHEGYSLLADGVSCTPTVEYPCGKIPILEKRNASKPQGR chain 2: IVGGKVCPKGECPWQVLLLVNGAQLCGGTLINTIWVVSAAHCFDKIKNWRNLIAVLGEHDLSEHDGDEQSRRVAQVIIPSTYVPGTTNHDIALLRLHQPVVLTDHVVPLCLPERTFSERTLAFVRFSLVSGWGQLLDRGATALELMVLNVPRLMTQDCLQQSRKVGDSPNITEYMFCAGYSDGSKDSCKGDSGGPHATHYRGTWYLTGIVSWGQGCATVGHFGVYTRVSQYIEWLQKLMRSEPRPGVLLRAPFP,"The lack of FX activation, even at 100-fold higher concentration than that of rFVIIa",the activity of PCgla-egf1FVIIa was identical to the vehicle control
